{"source": "patent US20160158369A1", "about": "“PHARMACEUTICAL COMPOSITION FOR RESPIRATORY ADMINISTRATION” (SEIKAGAKU CORPORATION, priority 2013, published 2016)", "key": {"[1]": {"assay": "Drug dissociation test: polysaccharide derivative in buffer solution, 36°C, 1 week, HPLC", "format": "physicochemical", "method": "In the examples relating to drug dissociation test, the drug dissociation ratio was evaluated as described below.\nSodium dihydrogen phosphate dihydrate (780 mg (5.0 mmol)) was dissolved in 500 mL of distilled water to give a liquid A. Separately, disodium hydrogen phosphate dodecahydrate (1.79 g (5.0 mmol)) was dissolved in 500 mL of distilled water to give a liquid B. By mixing the liquid A and liquid B at ratio of 2:3, a phosphate buffer solution of pH 7.5 was prepared.\n0.62 g (10 mmol) of boric acid and 0.75 g (10 mmol) of potassium chloride were weighed and dissolved in 500 mL of distilled water to give a liquid C. Separately, by diluting 0.1 N sodium hydroxide solution with distilled water (×10 dilution), a liquid D was prepared.\n50 mL of the liquid C and 7 mL of the liquid D were added to a 100 mL mess flask, and according to dilution to 100 mL with distilled water, a borate buffer solution of pH 8.0 was prepared. Furthermore, 50 mL of the liquid C and 40 mL of the liquid D were added to a 100 mL mess flask, and according to mess-up to 100 mL with distilled water, a borate buffer solution of pH 9.0 was prepared.\nEach polysaccharide derivative obtained from above was dissolved in a buffer solution at each pH so as to have a concentration of 5 mg/10 mL, and heated for 1 week in an incubator at 36° C. Then, the drug dissociation ratio during the incubation was evaluated every 24 hours by liquid chromatography (HPLC).\nThe evaluation was performed by measuring the ratio between the drug amount remained in a polysaccharide derivative and the dissociated drug amount according to use of a size exclusion chromatography column (manufactured by TOSOH, TSKgel α-6000, 7.8 mmI.D.×30 cm).\nDetailed conditions for the liquid chromatography are as follows.\nAnalysis time: 40 minutes\nSolution for elution: acetonitrile (for HPLC):physiological saline=1:2\nDetector: UV detector (240 nm)"}, "[2]": {"tested_on": "rat antigen-induced asthma model", "assay": "Rat antigen-induced asthma model, eosinophils in bronchoalveolar lavage fluid", "format": "in vivo", "method": "Intraperitoneal administration of 1 mL of aluminum hydroxide gel containing ovalbumin (1 mg/mL) was performed 3 times with one day interval. 14 Days after performing the first sensitization, intraperitoneal administration of 1 mL of aluminum hydroxide gel containing ovalbumin (1 mg/mL) was performed again followed by the second sensitization. 7 Days after the second sensitization, inhalation exposure of physiological saline (10 mg/mL) containing ovalbumin was performed by using a nebulizer five times with one day interval in order to induce asthma.\nThe 0.6 mg/mL prednisolone suspension was orally administered by using a sonde for oral administration under no anesthesia to have prednisolone amount of 3 mg/kg.\nMeanwhile, the test was performed with n=6 to 12.\n24 Hours after the fifth exposure, phosphate buffered saline (2 mL) containing 0.1% bovine serum albumin heated to 37° C. was injected to a bronchus of a rat under pentobarbital anesthesia and collected thereafter. This procedure was repeated 5 times to have bronchoalveolar lavage fluid. The bronchoalveolar lavage fluid was centrifuged for 3 minutes at 200×g and room temperature. The supernatant was discarded, and the pellet was re-suspended in phosphate buffered saline (500 μL) containing 0.1% bovine serum albumin.\nSubsequently, a smear sample of the suspension was prepared followed by Diff-Quik staining. According to cell fractionation, ratio of eosinophil in white blood cells was calculated. According to integration with the number of white blood cells in bronchoalveolar lavage fluid, the number of […] in bronchoalveolar lavage fluid was calculated. Meanwhile, the number of white blood cells in bronchoalveolar lavage fluid was measured by using a blood cell counting chamber. The results are shown in FIG. 4 and the following table.\nDose responsiveness of the compound va in an OVA sensitized rat model was determined in the same manner as (Test example B2).\nThere were three doses for determination, i.e., 0.35 mg/kg, 3.5 mg/kg, and 35 mg/kg, such that the budesonide amount for administration is 0.1 mg/kg, 1 mg/kg, or 10 mg/kg."}, "[3]": {"tested_on": "mouse antigen-induced airway hypersensitivity model", "assay": "Mouse antigen-induced airway hypersensitivity model (AHR, Penh, PC100)", "format": "in vivo", "details": "single intratracheal administration 40 μL, 1 week before the evaluation", "method": "For the evaluation, BALB/cCrSlc (Japan SLC, Inc., 11-week old) was used. […] Intratracheal administration (volume: 40 μL) of the budesonide suspension, mixture of budesonide and chondroitin sulfate, and an aqueous solution of the compound va was performed by using a glass microsyringe (Ito Micro Syringe, manufactured by ITO SEISAKUSHO CO., LTD.) after fixing the mouse on its back under general anesthesia. […] The administration was performed only once, and it was performed 6 days after the second sensitization. Meanwhile, the test was performed with n=6. Airway hyper responsiveness (AHR) evaluation was performed as described below. On Day 13 after the second sensitization, the mouse was forced to inhale metacholine (hereinbelow, MCh) of 0, 5, 10 and 20 mM, and the airway resistance parameter (Penh) at 3 minutes after the inhalation of metacholine with different concentrations was measured by a device for measuring unrestrained respiratory function (manufactured by Buxco Research System). AUC value of the Penh value was measured, and a graph of MCh concentration vs. AUC was established."}, "[4]": {"tested_on": "mouse model having antigen-induced rhinitis", "assay": "Mouse model having antigen-induced rhinitis, cough number", "format": "in vivo", "details": "single intranasal administration 20 μL", "method": "As a negative control, phosphate buffered saline was used. As a comparative control, 4 mg/mL budesonide suspension was used. […] From Day 1 after the final nasal cavity sensitization—induction, 20 μL of ovalbumin physiological saline (40 mg/mL) was intranasally administered with 24 hour interval to induce a rhinitis reaction. The induction of the rhinitis reaction was performed 8 times in total for 8 days. […] The phosphate buffered saline, aqueous solution of the compound va, and budesonide suspension were administered only once on the day of inducing initial rhinitis reaction, and 1 hour before administering physiological saline containing ovalbumin. Meanwhile, the test was basically performed with n=6. From the first day to Day 7 after inducing initial rhinitis reaction, number of coughs during 10 minutes after the administration of ovalbumin-containing physiological saline was measured."}}}
{"substance": "Chondroitin Sulfate Introduced with 21-β-Alanyl-Budesonide (25 kDa) [Compound va]", "values": [{"measurement": "Dissociation ratio (%/day)", "setting": "[1]; pH 7.4, 36°C", "value": 0.8, "unit": "%/day"}, {"measurement": "drug dissociation ratio", "setting": "[1]; pH 7.4, 36°C, day 0", "value": 0.0, "unit": "%"}, {"measurement": "drug dissociation ratio", "setting": "[1]; pH 7.4, 36°C, day 1", "value": 0.4, "unit": "%"}, {"measurement": "drug dissociation ratio", "setting": "[1]; pH 7.4, 36°C, day 2", "value": 1.0, "unit": "%"}, {"measurement": "drug dissociation ratio", "setting": "[1]; pH 7.4, 36°C, day 3", "value": 1.8, "unit": "%"}, {"measurement": "drug dissociation ratio", "setting": "[1]; pH 7.4, 36°C, day 4", "value": 3.1, "unit": "%"}, {"measurement": "drug dissociation ratio", "setting": "[1]; pH 7.4, 36°C, day 5", "value": 3.8, "unit": "%"}, {"measurement": "drug dissociation ratio", "setting": "[1]; pH 7.4, 36°C, day 6", "value": 4.4, "unit": "%"}, {"measurement": "drug dissociation ratio", "setting": "[1]; pH 7.4, 36°C, day 7", "value": 5.3, "unit": "%"}, {"measurement": "Dissociation ratio (%/day)", "setting": "[1]; pH 8.0, 36°C", "value": 2.5, "unit": "%/day"}, {"measurement": "drug dissociation ratio", "setting": "[1]; pH 8.0, 36°C, day 0", "value": 0.0, "unit": "%"}, {"measurement": "drug dissociation ratio", "setting": "[1]; pH 8.0, 36°C, day 1", "value": 2.3, "unit": "%"}, {"measurement": "drug dissociation ratio", "setting": "[1]; pH 8.0, 36°C, day 2", "value": 4.2, "unit": "%"}, {"measurement": "drug dissociation ratio", "setting": "[1]; pH 8.0, 36°C, day 3", "value": 7.7, "unit": "%"}, {"measurement": "drug dissociation ratio", "setting": "[1]; pH 8.0, 36°C, day 4", "value": 10.3, "unit": "%"}, {"measurement": "drug dissociation ratio", "setting": "[1]; pH 8.0, 36°C, day 5", "value": 12.8, "unit": "%"}, {"measurement": "drug dissociation ratio", "setting": "[1]; pH 8.0, 36°C, day 6", "value": 14.0, "unit": "%"}, {"measurement": "drug dissociation ratio", "setting": "[1]; pH 8.0, 36°C, day 7", "value": 17.5, "unit": "%"}, {"measurement": "eosinophil-inhibiting activity", "setting": "[2]; 0.35 mg/kg (0.1 mg/kg in budesonide amount), 1 week after the administration", "value": "eosinophil-inhibiting activity was shown"}, {"measurement": "dose responsiveness of eosinophil-inhibiting activity", "setting": "[2]; 0.35, 3.5 and 35 mg/kg", "value": "observed with dose responsiveness"}, {"measurement": "inhibition of enhanced sensitivity to MCh (airway hyper responsiveness, PC100)", "setting": "[3]", "value": "inhibited to the level of the control group"}, {"measurement": "change in average cough number Day 1 to Day 7 and total cough number during 8 days", "setting": "[4]", "value": "exhibited an inhibition"}]}
